{"source": "paper doi:10.1101/2021.08.28.458007v1", "proteins": {"B1": {"name": "PgDHAR (Cenchrus americanus) (protein)", "chain": "MAVEVCVKAAVGAPDILGDCPFSQRVLLTLEEKKITYEMKLVDLSNKPEWFLKISPEGKVPVFNSGDGKWIADSDVITQVIEEKFPTPSLVTPPEYASVGSKIFPSFVKFLKSKDASDGSEKALLDELQALDEHLKAHGPYISGENVSAADLSLGPKLFHLQVALEHFKGWKIPENLTSVHAYTKALFSRESFVKTKPANQYLIAGWAPKVNA"}, "B2": {"name": "PgDHAR (Cenchrus americanus; K8A) (protein)", "chain": "B1 chain with K8A"}, "B3": {"name": "PgDHAR (Cenchrus americanus; D19A) (protein)", "chain": "B1 chain with D19A"}, "B4": {"name": "HsGSTO1-1 (Homo sapiens) (protein)", "chain": "SGESARSLGKGSAPPGPVPEGSIRIYSMRFCPFAERTRLVLKAKGIRHEVININLKNKPEWFFKKNPFGLVPVLENSQGQLIYESAITCEYLDEAYPGKKLLPDDPYEKACQKMILELFSKVPSLVGSFIRSQNKEDYAGLKEEFRKEFTKLEEVLTNKKTTFFGGNSISMIDYLIWPWFERLEAMKLNECVDHTPKLKLWMAAMKEDPTVSALLTSEKDWQGFLELYLQNSPEACDYGL"}}, "substrate": "O=C1O[C@H]([C@@H](O)CO)C(=O)C1=O", "assay": "purified protein", "key": {"[1]": {"conditions": "co-substrate GSH (2 mM), 50 mM phosphate pH 6.8, 0.2 mM EDTA"}, "[2]": {"conditions": "co-substrate GSH, 50 mM phosphate pH 6.8, 0.2 mM EDTA"}}, "note": "Residue numbers refer to the chain shown, from its start. In names and notes the source's numbering stands.", "data": [{"protein": "B1", "values": [{"measurement": "Km", "setting": "[1]", "value": "159.2 (±11.4) μM"}, {"measurement": "kcat", "setting": "[1]", "value": 2271.663, "unit": "s⁻¹"}]}, {"protein": "B2", "values": [{"measurement": "Km", "setting": "[2]", "value": "1842 (±414.3) μM"}, {"measurement": "kcat", "setting": "[2]", "value": 89.34, "unit": "s⁻¹"}]}, {"protein": "B3", "values": [{"measurement": "Km", "setting": "[2]", "value": "245.7 (±75.7) μM"}, {"measurement": "kcat", "setting": "[2]", "value": 20.35, "unit": "s⁻¹"}]}, {"protein": "B4", "values": [{"measurement": "Km", "setting": "co-substrate GSH, marked 'This study' (footnote a)", "value": "138.2 (±27.07) μM"}]}]}
